Results: publication PMC3589492, “Intersubunit Ionic Interactions Stabilize the Nucleoside Diphosphate Kinase of Mycobacterium tuberculosis” (PLoS ONE, 2013)

Key:
[1] = target: the molecule itself; experiment: cell-based or functional assay
[2] = target: the molecule itself; experiment: SEC; Superose 12 column, 50 mM Hepes pH 7.4, 150 mM sodium chloride, 0.4 mL/min, calibrated with molecular weight markers

B1: Nucleoside diphosphate kinase of Mycobacterium tuberculosis, wild type (enzyme)
chain: MTERTLVLIKPDGIERQLIGEIISRIERKGLTIAALQLRTVSAELASQHYAEHEGKPFFGSLLEFITSGPVVAAIVEGTRAIAAVRQLAGGTDPVQAAAPGTIRGDFALETQFNLVHGSDSAESAQREIALWFPGA
notes: Nucleoside diphosphate kinase, Mycobacterium tuberculosis; No tag is mentioned; also called Mt-NDPK; wt Mt-NDPK
c1/2 of inactivation/unfolding in urea (10 µg/mL, 16 h) [1]: ~5.2 M
stoichiometry N [2]: 6
